Laboratory results: patent US6869925 (Amgen, dated 2005)
Where a chain is given by its changes, count along the chain named.

Tests used:
[1] = biological target: SLPI binding sites on U937 cells (human monocyte cell line; intact cells, PMA-induced cells or plasma membranes) (human); assay: competition with 125I-SLPI, intact U937 cells, competitor at 0 nM
[2] = biological target: SLPI binding sites on U937 cells (human monocyte cell line; intact cells, PMA-induced cells or plasma membranes) (human); assay: competition with 125I-SLPI, intact U937 cells, Kd by Cheng-Prusoff
[3] = biological target: SLPI binding sites on U937 cells (human monocyte cell line; intact cells, PMA-induced cells or plasma membranes) (human); assay: competition with 125I-SLPI, intact U937 cells, competitor at 84 nM
[4] = biological target: SLPI binding sites on HuT78 cells (human T cell line) (human); assay: competition with 125I-SLPI, intact HuT78 cells, competitor at 0 nM
[5] = biological target: SLPI binding sites on HuT78 cells (human T cell line) (human); assay: competition with 125I-SLPI, intact HuT78 cells, Kd by Cheng-Prusoff
[6] = biological target: SLPI binding sites on U937 cells (human monocyte cell line; intact cells, PMA-induced cells or plasma membranes) (human); assay: competition with 125I-SLPI, intact U937 cells, competitor at 2.6 nM
[7] = biological target: SLPI binding sites on U937 cells (human monocyte cell line; intact cells, PMA-induced cells or plasma membranes) (human); assay: competition with 125I-SLPI, intact U937 cells, competitor at 8.2 nM
[8] = biological target: SLPI binding sites on HuT78 cells (human T cell line) (human); assay: competition with 125I-SLPI, intact HuT78 cells, competitor at 84 nM
[9] = biological target: SLPI binding sites on U937 cells (human monocyte cell line; intact cells, PMA-induced cells or plasma membranes) (human); assay: competition with 125I-SLPI, intact U937 cells, competitor at 0.80 nM
[10] = biological target: SLPI binding sites on U937 cells (human monocyte cell line; intact cells, PMA-induced cells or plasma membranes) (human); assay: competition with 125I-SLPI, intact U937 cells, competitor at 2750 nM
[11] = biological target: SLPI binding sites on HuT78 cells (human T cell line) (human); assay: competition with 125I-SLPI, intact HuT78 cells, competitor at 2.6 nM
[12] = biological target: SLPI binding sites on HuT78 cells (human T cell line) (human); assay: competition with 125I-SLPI, intact HuT78 cells, competitor at 8.2 nM
[13] = biological target: SLPI binding sites on HuT78 cells (human T cell line) (human); assay: competition with 125I-SLPI, intact HuT78 cells, competitor at 0.80 nM
[14] = biological target: SLPI binding sites on HuT78 cells (human T cell line) (human); assay: competition with 125I-SLPI, intact HuT78 cells, competitor at 2750 nM
[15] = biological target: SLPI binding sites on U937 cells (human monocyte cell line; intact cells, PMA-induced cells or plasma membranes) (human); assay: competition with 125I-SLPI, U937 plasma membranes, competitor at 0 nM
[16] = biological target: SLPI binding sites on U937 cells (human monocyte cell line; intact cells, PMA-induced cells or plasma membranes) (human); assay: competition with 125I-SLPI, U937 plasma membranes, Kd by Cheng-Prusoff
[17] = biological target: SLPI binding sites on U937 cells (human monocyte cell line; intact cells, PMA-induced cells or plasma membranes) (human); assay: competition with 125I-SLPI, U937 plasma membranes, competitor at 268 nM
[18] = biological target: SLPI binding sites on U937 cells (human monocyte cell line; intact cells, PMA-induced cells or plasma membranes) (human); assay: competition with 125I-SLPI, U937 plasma membranes, competitor at 2.56 nM
[19] = biological target: SLPI binding sites on U937 cells (human monocyte cell line; intact cells, PMA-induced cells or plasma membranes) (human); assay: competition with 125I-SLPI, U937 plasma membranes, competitor at 2750 nM
[20] = biological target: SLPI binding sites on U937 cells (human monocyte cell line; intact cells, PMA-induced cells or plasma membranes) (human); assay: competition with 125I-SLPI, U937 plasma membranes, competitor at 8.20 nM
[21] = biological target: SLPI binding sites on U937 cells (human monocyte cell line; intact cells, PMA-induced cells or plasma membranes) (human); assay: competition with 125I-SLPI, U937 plasma membranes, competitor at 83.9 nM
[22] = biological target: SLPI binding sites on U937 cells (human monocyte cell line; intact cells, PMA-induced cells or plasma membranes) (human); assay: competition with 125I-SLPI, U937 plasma membranes, competitor at 0.800 nM
[23] = biological target: T1, human neutrophil elastase (human, UniProt P08246 30-247, limits assumed); assay: BIAcore, immobilized Phe72 mutein, monoS fractions of CHAPS-solubilized U937 membranes; identity by comigration
T1 construct: also called HNE
T1 sequence (looked up): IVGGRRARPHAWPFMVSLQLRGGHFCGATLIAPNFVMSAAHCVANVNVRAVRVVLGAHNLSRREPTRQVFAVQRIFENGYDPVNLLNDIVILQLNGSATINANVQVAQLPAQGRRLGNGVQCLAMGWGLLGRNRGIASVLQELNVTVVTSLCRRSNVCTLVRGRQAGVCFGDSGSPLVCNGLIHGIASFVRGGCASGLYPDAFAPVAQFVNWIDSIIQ
Description: The BIAcore analytical system is available from Pharmacia Biosensor AB, Uppsala, Sweden.

[24] = biological target: the molecule itself; assay: DSS crosslinking of 2 µM 125I-SLPI in the absence of virus, reducing SDS-PAGE, phosphor imager
Protocol: Incubation was stopped by addition of Laemmli sample buffer. […] The volume of the parallel sample that was loaded on the gel was 5 times larger than the volume of the virus-containing samples.

B1: SLPI mutein Phe 72 (other, human, UniProt P03973 26-132, looked up)
chain: SGKSFKAGVCPPKKSAQCLRYKKPECQSDWQCPGKKRCCPDTCGIKCLDPVDTPNPTRRKPGKCPVTYGQCFMLNPPNFCEMDGQCKRDLKCCMGMCGKSCVSPVKA
notes: mature; also called Phe72 mutein
Work on B1 yielded a % *SLPI BOUND [1] of 94%, a Kd [2] of 2 nM and a % *SLPI BOUND [3] of 4%. For the same binder, the % *SLPI BOUND [4] was 100%, the Kd [5] was 3 nM and the % *SLPI BOUND [6] was 51%. For the same binder, the % *SLPI BOUND [7] was 22%, the % *SLPI BOUND [8] was 36% and the % *SLPI BOUND [9] was 77%. The % *SLPI BOUND [10] was 5%, the % *SLPI BOUND [11] was 90% and the % *SLPI BOUND [12] was 57%. It also gave a % *SLPI BOUND [13] of 69%, a % *SLPI BOUND [14] of 1% and a CPM *SLPI BOUND [15] of 18700 cpm. For the same binder, the Kd [16] was 1 nM, the CPM *SLPI BOUND [17] was 2580 cpm and the CPM *SLPI BOUND [18] was 8920 cpm. For the same binder, the CPM *SLPI BOUND [19] was 1540 cpm, the CPM *SLPI BOUND [20] was 4260 cpm and the CPM *SLPI BOUND [21] was 1660 cpm. For the same binder, the CPM *SLPI BOUND [22] was 12400 cpm and the binding result [23] was “binds”.

B2: serine leukocyte protease inhibitor (SLPI) (other, human, UniProt P03973 26-132, looked up)
chain: B1 chain with F72L
modifications: the tracer *SLPI carried I-125 (Bolton Hunter reagent in Examples 12-16, Iodogen in Example 19); positions not given
notes: mature; labelled and cold SLPI are treated as one molecule; also called *SLPI (radiolabelled); cold SLPI
B2: binds [24].
